Data published in paper PMC10671326, “In Vivo and In Vitro Characterization of the RNA Binding Capacity of SETD1A (KMT2F)”.
Where “and” joins values, the source holds several entries; their conditions need not be identical. Equal values may be shown once.

What was measured:
SETD1A RRM domain [1] = molecular target: T1, SETD1A RRM domain (human, UniProt O15047 89-197); assay: MST; details: EMSA: 2 nM biotinylated RNA, LightShift RNA EMSA kit protocol, 30 min room temperature, 6% native PAGE in 0.5x TBE; MST: 40% MST power, LED 20-40%, buffer and …
T1 sequence (O15047 89-197): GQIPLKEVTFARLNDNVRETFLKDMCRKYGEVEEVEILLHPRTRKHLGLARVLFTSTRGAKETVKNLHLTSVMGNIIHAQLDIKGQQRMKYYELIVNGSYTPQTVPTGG

SETD1A RRM domain [2] = molecular target: T1, SETD1A RRM domain; assay: MST; T-jump; EMSA: 2 nM biotinylated RNA, LightShift RNA EMSA kit protocol, 30 min room temperature, 6% native PAGE in 0.5x TBE; MST: 40% MST power, LED 20-40%, buffer and temperature not in material; details: protein: recombinant; tags: His (pET28-MHL vector, HisTrap purified); label: uniformly labeled (MST)
SETD1A RRM domain [3] = molecular target: T1, SETD1A RRM domain; assay: MST; back diffusion; EMSA: 2 nM biotinylated RNA, LightShift RNA EMSA kit protocol, 30 min room temperature, 6% native PAGE in 0.5x TBE; MST: 40% MST power, LED 20-40%, buffer and temperature not in material; details: protein: recombinant; tags: His (pET28-MHL vector, HisTrap purified); label: uniformly labeled (MST)
SETD1A RRM domain [4] = molecular target: T1, SETD1A RRM domain; assay: MST; thermophoresis; EMSA: 2 nM biotinylated RNA, LightShift RNA EMSA kit protocol, 30 min room temperature, 6% native PAGE in 0.5x TBE; MST: 40% MST power, LED 20-40%, buffer and temperature not in material; details: protein: recombinant; tags: His (pET28-MHL vector, HisTrap purified); label: uniformly labeled (MST)

Molecule | Kd (SETD1A RRM domain [1]) | further results
NEAT1_2 (12_13k segment) | 1520 nM and 1890 nM and 1110 nM | –
SCARNA7 | 1280 nM and 310 nM and 1170 nM | –
SETD1A mRNA (N-terminal half coding region) | 210 nM and 60 nM | –
SETD1B mRNA (RRM coding region) | 310 nM | –
SNHG8 | 870 nM and 2190 nM and 1190 nM | –
TP53TG1 | 670 nM and 690 nM and 1050 nM | –
AAGAAUGGCCUCGCGGAGGCAUGCGUCAUGCUAGCGUGCGGGGUACUCUU (ssRNA) [Random50 (R50)] | – | Kd (SETD1A RRM domain [2]): 15.5 µM; Kd (SETD1A RRM domain [3]): 11.8 µM; Kd (SETD1A RRM domain [4]): 28.1 µM
